Here are results for 125 sequences from the supplement of paper PMC9112550, “Optimization of the antimicrobial peptide Bac7 by deep mutational scanning” (BMC Biology, 2022).

The subject of the data set is Escherichia coli TOP10. As to the kind of experiment: shrunken log2 fold change of peptide-encoding DNA abundance (4.5 h post-induction vs induction); higher = less antimicrobial activity (less host growth inhibition). The note with it: time post-induction: 4.5 h; library: site-saturation at positions 5, 18, 19, 20.
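Note: peptides expressed intracellularly from a pBAD plasmid library in pooled LB shake-flask culture, induced with 0.3% L-arabinose, DNA abundance read by NGS, three biological replicates, DESeq2 with apeglm shrinkage.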

For the sequence RRIRWRPPRLPRPRPRPVDSPRP, the “shrunken log2 fold change” value was determined as 0.183.
Next, RRIRCRPPRLPRPRPRPNSAPRP: 0.0338; RRIRKRPPRLPRPRPRPMKAPRP: -0.00163.
Turning to RRIRRRPPRLPRPRPRPPVNPRP, the “shrunken log2 fold change” value came to 0.282.
Regarding RRIRFRPPRLPRPRPRPEFQPRP, the “shrunken log2 fold change” value amounted to 0.0542.
For RRIRFRPPRLPRPRPRPIRKPRP, the “shrunken log2 fold change” value was -0.0472.
Next, RRIRYRPPRLPRPRPRPTDQPRP: -0.175.
With RRIRPRPPRLPRPRPRPVCEPRP, the “shrunken log2 fold change” value stood at 0.227.
As for RRIRHRPPRLPRPRPRPVLCPRP, the “shrunken log2 fold change” value was -0.273.
As to RRIRPRPPRLPRPRPRPNGTPRP, the “shrunken log2 fold change” value amounted to 0.247.
With RRIRRRPPRLPRPRPRPCLFPRP, the “shrunken log2 fold change” value was -0.0047.
Next, RRIRARPPRLPRPRPRPKLWPRP: 1; RRIRCRPPRLPRPRPRPVALPRP: 0.0824; RRIRTRPPRLPRPRPRPYWKPRP: -0.000823.
Next, RRIRYRPPRLPRPRPRPLIHPRP: -1.38; RRIRCRPPRLPRPRPRPCTMPRP: -0.725; RRIRLRPPRLPRPRPRPEKCPRP: -0.0157.
For RRIRERPPRLPRPRPRPCEIPRP, the “shrunken log2 fold change” value is -0.318.
Consider RRIRMRPPRLPRPRPRPFSQPRP, for which the “shrunken log2 fold change” value is -0.0398.
With RRIRNRPPRLPRPRPRPYKLPRP, the “shrunken log2 fold change” value was -0.66.
Regarding RRIRERPPRLPRPRPRPRKMPRP, the “shrunken log2 fold change” value was -0.0569.
With RRIRNRPPRLPRPRPRPHCSPRP, the “shrunken log2 fold change” value was -0.095.
Next, RRIRMRPPRLPRPRPRPPEKPRP: 2.49; RRIRARPPRLPRPRPRPSVDPRP: 0.125.
Next, RRIRVRPPRLPRPRPRPRNLPRP: 0.107.
RRIRGRPPRLPRPRPRPDMGPRP: the “shrunken log2 fold change” value came to 0.269.
For RRIRSRPPRLPRPRPRPQITPRP, the “shrunken log2 fold change” value is -0.457.
On to RRIRFRPPRLPRPRPRPWWHPRP, for which the “shrunken log2 fold change” value is -0.334.
Turning to RRIRPRPPRLPRPRPRPAQVPRP, the “shrunken log2 fold change” value is -0.0714.
Next, RRIRQRPPRLPRPRPRPIRSPRP: -0.0132.
Next, RRIRQRPPRLPRPRPRPRTIPRP: 0.122.
Take RRIRRRPPRLPRPRPRPQARPRP: the “shrunken log2 fold change” value was 0.246.
Next, RRIRVRPPRLPRPRPRPVVPPRP: 0.132; RRIRMRPPRLPRPRPRPCKVPRP: -0.0465.
On to RRIRMRPPRLPRPRPRPVWGPRP, for which the “shrunken log2 fold change” value turned out to be 0.185.
RRIRARPPRLPRPRPRPMWNPRP: the “shrunken log2 fold change” value was -0.342.
As for RRIRWRPPRLPRPRPRPFLYPRP, the “shrunken log2 fold change” value is -0.0978.
With RRIRCRPPRLPRPRPRPHTLPRP, the “shrunken log2 fold change” value was -0.731.
As for RRIRPRPPRLPRPRPRPHMQPRP, the “shrunken log2 fold change” value amounted to 0.151.
RRIRWRPPRLPRPRPRPFWFPRP: the “shrunken log2 fold change” value is -0.119.
Take RRIRVRPPRLPRPRPRPYNCPRP: the “shrunken log2 fold change” value is -0.432.
As for RRIRDRPPRLPRPRPRPSYYPRP, the “shrunken log2 fold change” value is -0.0757.
With RRIRHRPPRLPRPRPRPRRIPRP, the “shrunken log2 fold change” value amounted to 0.0543.
Turning to RRIRRRPPRLPRPRPRPCMKPRP, the “shrunken log2 fold change” value is -0.0288.
Take RRIRQRPPRLPRPRPRPIYVPRP: the “shrunken log2 fold change” value was determined as 0.0693.
In the case of RRIRHRPPRLPRPRPRPNFRPRP, the “shrunken log2 fold change” value is -0.144.
For RRIRYRPPRLPRPRPRPSDSPRP, the “shrunken log2 fold change” value is -0.191.
For the sequence RRIRARPPRLPRPRPRPTNHPRP, the “shrunken log2 fold change” value was -0.181.
For RRIRNRPPRLPRPRPRPQPFPRP, the “shrunken log2 fold change” value was -0.0278.
Next, RRIRSRPPRLPRPRPRPEWWPRP: 0.0594; RRIRQRPPRLPRPRPRPGHDPRP: -0.112; RRIRDRPPRLPRPRPRPMHQPRP: 0.126.
Next, RRIRNRPPRLPRPRPRPYTQPRP: -0.798; RRIRQRPPRLPRPRPRPNFEPRP: -0.00188; RRIRSRPPRLPRPRPRPCCIPRP: -0.197.
Consider RRIRGRPPRLPRPRPRPDYFPRP, for which the “shrunken log2 fold change” value is -0.0114.
Regarding RRIRYRPPRLPRPRPRPMSAPRP, the “shrunken log2 fold change” value is -0.0208.
Take RRIRPRPPRLPRPRPRPGSDPRP: the “shrunken log2 fold change” value was -0.00287.
The same measure for RRIRIRPPRLPRPRPRPMQWPRP: -0.192; for RRIRKRPPRLPRPRPRPPVWPRP: 0.448.
Consider RRIRWRPPRLPRPRPRPGITPRP, for which the “shrunken log2 fold change” value was 0.0178.
Turning to RRIRIRPPRLPRPRPRPWKRPRP, the “shrunken log2 fold change” value was -0.0143.
Take RRIRIRPPRLPRPRPRPGANPRP: the “shrunken log2 fold change” value came out at 0.0193.
Consider RRIRIRPPRLPRPRPRPIMKPRP, for which the “shrunken log2 fold change” value is -0.227.
In the case of RRIRQRPPRLPRPRPRPLDQPRP, the “shrunken log2 fold change” value was -0.635.
For the sequence RRIRQRPPRLPRPRPRPYTYPRP, the “shrunken log2 fold change” value was -0.157.
Consider RRIRFRPPRLPRPRPRPTYYPRP, for which the “shrunken log2 fold change” value is -0.421.
RRIRYRPPRLPRPRPRPQEKPRP: the “shrunken log2 fold change” value was -0.0798.
Take RRIRVRPPRLPRPRPRPWATPRP: the “shrunken log2 fold change” value is -0.122.
Turning to RRIRWRPPRLPRPRPRPENEPRP, the “shrunken log2 fold change” value is 0.194.
In the case of RRIRLRPPRLPRPRPRPWYMPRP, the “shrunken log2 fold change” value was -0.0481.
Next, RRIRQRPPRLPRPRPRPPVHPRP: 0.164; RRIRSRPPRLPRPRPRPTCHPRP: 0.024; RRIRMRPPRLPRPRPRPQLHPRP: 0.546.
For RRIRPRPPRLPRPRPRPEFWPRP, the “shrunken log2 fold change” value worked out at 0.583.
The same measure for RRIRDRPPRLPRPRPRPCHPPRP: -0.0697; for RRIRARPPRLPRPRPRPTCHPRP: 0.427; for RRIRIRPPRLPRPRPRPEICPRP: -0.0162.
The same measure for RRIRFRPPRLPRPRPRPQDFPRP: -0.143.
Next, RRIRIRPPRLPRPRPRPPGTPRP: 0.029; RRIRIRPPRLPRPRPRPGYVPRP: -0.181.
For RRIRFRPPRLPRPRPRPAEEPRP, the “shrunken log2 fold change” value turned out to be 0.105.
The same measure for RRIRNRPPRLPRPRPRPPPYPRP: 0.534; for RRIRWRPPRLPRPRPRPPRKPRP: 0.731; for RRIRRRPPRLPRPRPRPTSDPRP: 0.256.
Next, RRIRVRPPRLPRPRPRPNWHPRP: -0.0428; RRIRLRPPRLPRPRPRPLFQPRP: -0.322; RRIRWRPPRLPRPRPRPTGIPRP: 0.0938.
RRIRLRPPRLPRPRPRPAVEPRP: the “shrunken log2 fold change” value is -0.0223.
Regarding RRIRCRPPRLPRPRPRPDAVPRP, the “shrunken log2 fold change” value came out at 0.0365.
Regarding RRIRKRPPRLPRPRPRPSKRPRP, the “shrunken log2 fold change” value came out at 0.0981.
Take RRIRFRPPRLPRPRPRPGFMPRP: the “shrunken log2 fold change” value is -0.242.
Next, RRIRYRPPRLPRPRPRPPGTPRP: -0.146; RRIRPRPPRLPRPRPRPAPEPRP: 0.346.
Next, RRIRARPPRLPRPRPRPQQCPRP: 0.132; RRIRQRPPRLPRPRPRPCFQPRP: -0.252; RRIRHRPPRLPRPRPRPSQQPRP: -0.031.
For the sequence RRIRKRPPRLPRPRPRPFQQPRP, the “shrunken log2 fold change” value was found to be 0.202.
With RRIRDRPPRLPRPRPRPSQFPRP, the “shrunken log2 fold change” value was -0.181.
As for RRIRSRPPRLPRPRPRPKFDPRP, the “shrunken log2 fold change” value was -0.081.
Take RRIRNRPPRLPRPRPRPGDKPRP: the “shrunken log2 fold change” value was -0.105.
Consider RRIRKRPPRLPRPRPRPKDQPRP, for which the “shrunken log2 fold change” value was determined as 0.619.
Consider RRIRLRPPRLPRPRPRPWYGPRP, for which the “shrunken log2 fold change” value is -0.53.
The same measure for RRIRLRPPRLPRPRPRPQFVPRP: -0.0035.
Regarding RRIRTRPPRLPRPRPRPHACPRP, the “shrunken log2 fold change” value was found to be 0.158.
The same measure for RRIRHRPPRLPRPRPRPCAAPRP: -0.195.
The same measure for RRIRERPPRLPRPRPRPGCEPRP: -0.00695; for RRIRFRPPRLPRPRPRPMWIPRP: -0.106; for RRIRTRPPRLPRPRPRPCCEPRP: -0.105.
The same measure for RRIRLRPPRLPRPRPRPLSPPRP: 0.0444; for RRIRIRPPRLPRPRPRPHQKPRP: -0.0756.
As for RRIRLRPPRLPRPRPRPAHSPRP, the “shrunken log2 fold change” value came out at 0.0693.
For RRIRTRPPRLPRPRPRPWVCPRP, the “shrunken log2 fold change” value was -1.58.
RRIRVRPPRLPRPRPRPTQWPRP: the “shrunken log2 fold change” value worked out at 0.12.
Next, RRIRERPPRLPRPRPRPEQHPRP: -0.0123; RRIRCRPPRLPRPRPRPAMKPRP: -0.104.
Consider RRIRSRPPRLPRPRPRPFLRPRP, for which the “shrunken log2 fold change” value was -0.0915.
In the case of RRIRWRPPRLPRPRPRPVGQPRP, the “shrunken log2 fold change” value stood at 0.413.
In the case of RRIRDRPPRLPRPRPRPIYWPRP, the “shrunken log2 fold change” value was found to be 0.202.
For the sequence RRIRQRPPRLPRPRPRPEEYPRP, the “shrunken log2 fold change” value was 0.0748.
Next, RRIRIRPPRLPRPRPRPAKGPRP: -0.224; RRIRPRPPRLPRPRPRPSQHPRP: -0.278.
Next, RRIRTRPPRLPRPRPRPKMKPRP: -0.554.
For RRIRWRPPRLPRPRPRPDMVPRP, the “shrunken log2 fold change” value was determined as 0.0298.
With RRIRDRPPRLPRPRPRPWYSPRP, the “shrunken log2 fold change” value is -0.0808.
